Reference: patent US7090843B1, “Recombinant anti-CD30 antibodies and uses thereof” (Seattle Genetics, Inc., priority 2000, dated 2006)
Read-outs that look alike come from different tables or passages of the source.

Columns and labels:
HD cell line L428 = experiment: Chemotherapeutic drugs on L428 cells pre-cultured with or without cross-linked AC10 (3H-thymidine); type: cell-based
Method: L428 cells were cultured for 24 hours in the presence or absence of 0.1 μg/ml anti-CD30 antibody, AC10, crosslinked by the addition of 20 μg/ml goat anti-mouse IgG antibodies. After the 24-hour culture period, the cells were harvested and washed with phosphate buffered saline (PBS). The cells were then plated into 96-well flat-bottom tissue culture plates at 5×10^3 cells/well and mixed with various dilutions of chemotherapeutic drugs. After a 1-hour exposure to the drugs the cells were washed twice, followed by the addition of fresh culture media. The plates were then incubated at 37° C. for 72 hours followed by a 4-hour incubation with 0.5 μCi/well ^3H-thymidine. The inhibition of growth was determined by comparing the amount of ^3H-thymidine incorporated into treated cells to the amount incorporated into untreated control cells.
To evaluate the effect of the anti-CD30 mAb in combination with chemotherapeutic drugs, L428 cells were incubated for 24 hours in either the absence of antibody or the presence of AC10 at 0.1 μg/ml with 20 μg/ml goat anti-mouse IgG to provide crosslinking for the primary antibody. After this incubation the cells were plated into 96-well tissue culture plates at 5×10^3 cells/well in the presence of dilutions of chemotherapeutic drugs including doxorubicin, cisplatin, and etoposide (Table 3). The EC50, concentration of drug needed to inhibit the incorporation of ^3H-thymidine by 50% compared to untreated control cells, was then determined for cells treated with the drugs alone or the combinations of drug and antibody.

HDLM-2 = experiment: Proliferation assay (3H-thymidine incorporation), immobilized or cross-linked anti-CD30 mAbs; type: cell-based
Method: (§1) Proliferation assays: CD30 expressing cell lines were cultured in flat-bottom 96-well plates at a density of 50,000 or 5,000 cells/well in growth media (RPMI with 10% fetal bovine serum (FBS) for cell lines L428, KM-H2 and Karpas 299, and RPMI/20% FBS for cell lines HDLM-2 and L540. The cell lines were cultured in the absence or presence of cross-linked soluble anti-CD30 mAbs or immobilized anti-CD30 mAbs, as described below.
(§2) Antibody cross-linking in solution: To cross-link the anti-CD30 antibodies in solution, various dilutions of AC10 or HeFi-1 were titrated into 96-well flat bottom tissue culture plates in the absence or presence of 20 μg/ml polyclonal goat anti-mouse IgG antibodies. Hodgkin's disease cell lines were then added to the plates at either 50,000 or 5,000 cells/well. The plates were incubated at 37° C. for 72 hours and were labeled with ^3H-thymidine, 1 μCi/well, for the final 5 hours.
(§3) Antibody immobilization: Antibody immobilization was obtained by coating wells with antibody in 50 mmol/L Tris buffer (pH 8.5) for 18 hours at 4° C. Prior to the addition of cells, wells were washed twice with PBS to remove unbound mAb. 50,000 or 5,000 cells in a total volume of 200 μl were added to each well. Proliferation was determined by uptake of ^3H-thymidine (0.5 μCi/well) during the final 8 hours of a 72 hour culture period.

KM-H2 = experiment: as above; type: cell-based
Method: as §1, §2, §3

L428 [1] = experiment: as above; type: cell-based
Method: as §1, §2, §3

L540 [2] = experiment: as above; type: cell-based
Method: as §1, §2, §3

[3] = system: L540cy Hodgkin's disease xenografts; experiment: Disseminated L540cy Hodgkin's disease xenograft; type: in vivo, SCID mice; conditions: 1 mg/kg/injection i.p. q2d×10 from d1 (FIG. 5A)
Method: (§4) Human tumor xenograft models: Female C.B-17 SCID mice, obtained from Taconic (Germantown, N.Y.) at 4–6 weeks of age, were used for all efficacy studies. To establish xenograft models of Hodgkin's disease, L540cy (HD) cells were harvested from cell culture, washed in ice cold phosphate buffered saline (PBS), resuspended in PBS, and maintained on ice until implantation. For disseminated disease models, mice were injected intravenously through the tail vein with 10^7 L540cy cells. Solid tumor xenografts were established by injecting mice subcutaneously (s.c.) with 2×10^7 L540cy cells. For therapeutic evaluation the indicated treatment doses and schedules were used.
Administration of AC10 and HeFi-1: Disseminated L540cy tumor bearing mice received 10^7 cells through the tail vein on d0 followed by therapy initiated on d1. Treated mice received i.p. injections of either AC10 or HeFi-1 every two days for a total of 10 injections, q2d×10, at 1 mg/kg/injection.

L540 cells = experiment: Co-cultivation of L540 cells with antibodies, isolation of sCD30 from culture supernatant; type: cell-based; conditions: L540 cells co-cultivated with antibody
Text: At the Fourth Workshop on Leukocyte Differentiation Antigens in Vienna in February 1989, monoclonal antibodies were submitted by three different laboratories and finally characterized as belonging to the CD30 group. […] However, the antibody Ber-H2 also labels a subpopulation of plasma cells (Schwarting et al., 1988, Blood 74:1678–1689) and G. Pallesen (G. Pallesen, 1990, Histopathology 16:409–413) describes, on page 411, that Ber-H2 is cross-reacting with an epitope of an unrelated antigen which is altered by formaldehyde.

L540 [4] = conditions: co-culture with mAb; cited from earlier work
L428 [5] = conditions: co-culture with mAb; cited from earlier work
ALCL tumor xenografts = conditions: Tian et al., 1995; cited from earlier work
[6] = system: L540cy Hodgkin's disease xenografts; experiment: Subcutaneous L540cy Hodgkin's disease xenograft; type: in vivo, SCID mice; conditions: tumors >150 mm^3 at start, 2 mg/kg twice per week, five injections (FIG. 6)
Method: as §4
For the subcutaneous L540cy model, mice were injected s.c. with 2×10^7 cells and were observed daily for solid tumor formation. When tumors were palpable, the animals were randomly distributed into groups and received either AC10 or HeFi-1 q2d×10 at 2 mg/kg/injection.
To evaluate the efficacy of cAC10 in vivo, SCID mice were implanted subcutaneously with L540cy cells as described above. When the tumors reached an average size of greater than 150 mm^3 the mice were divided into groups that were either untreated or treated with 2 mg/kg cAC 10 twice per week for a total of five injections. The tumors in the untreated mice rapidly grew to an average size of greater than 600 mm^3 (FIG. 6).

[7] = Homo sapiens, L-428, L428, combination of drug and AC10 0.1 μg/ml cross-linked, read-out: EC50 (after incubation with AC10)
[8] = Homo sapiens, L-428, L428, drug alone, read-out: EC50 (drug alone)
[9] = Homo sapiens, L-428, L428, 24 hours with 0.1 μg/ml AC10 cross-linked with 20 μg/ml goat anti-mouse IgG, then 1-hour drug exposure, 72 hours, read-out: EC50, nM with AC10
[10] = Homo sapiens, L-428, L428, no antibody, 1-hour drug exposure, 72 hours, read-out: EC50, nM without AC10
[11] = soluble mAb 0.1 μg/ml cross-linked with 20 μg/ml goat anti-mouse IgG, 5×10^4 cell/well, 72 hours (FIG. 3)
[12] = soluble mAb cross-linked with 20 μg/ml goat anti-mouse IgG, 5×10^3 cell/well, 72 hours (FIG. 4)
[13] = immobilized mAb 10 μg/ml, 5,000 cells/well, 72 hours (FIG. 2)
[14] = immobilized mAb 10 μg/ml, 50,000 cells/well, 72 hours (FIG. 1)

Molecule	EC50 (HD cell line L428; [7]) [nM]	EC50 (HD cell line L428; [8]) [nM]	EC50 (HD cell line L428; [9]) [nM]	EC50 (HD cell line L428; [10]) [nM]	cell growth (3H-thymidine incorporation) (HDLM-2; [11])	cell growth (3H-thymidine incorporation) (HDLM-2; [12])	cell growth (3H-thymidine incorporation) (KM-H2; [11])	cell growth (3H-thymidine incorporation) (L428 [1]; [11])	cell growth (3H-thymidine incorporation) (L428 [1]; [12])	cell growth (3H-thymidine incorporation) (L540 [2]; [11])	cell growth (3H-thymidine incorporation) (L540 [2]; [12])	signs of disease [3]	further results
N.N.[Cl][Pt][Cl] [Cisplatin]													EC50 (HD cell line L428; L428, combination of drug and AC10 0.1 μg/ml cross-linked, read-out: EC50 (after incubation with AC10)): ~500 nM; EC50 (HD cell line L428; L428, drug alone, read-out: EC50 (drug alone)): ~1500 nM; EC50 (HD cell line L428; L428, 24 hours with 0.1 μg/ml AC10 cross-linked with 20 μg/ml goat anti-mouse IgG, then 1-hour drug exposure, 72 hours, read-out: EC50, nM with AC10): 1500 nM; EC50 (HD cell line L428; L428, no antibody, 1-hour drug exposure, 72 hours, read-out: EC50, nM without AC10): 500 nM
COc1cccc2c1C(=O)c1c(O)c3c(c(O)c1C2=O)C[C@@](O)(C(=O)CO)C[C@@H]3O[C@H]1C[C@H](N)[C@H](O)[C@H](C)O1 [Doxorubicin]	~9	~45	45	9									
COc1cc([C@@H]2c3cc4c(cc3[C@@H](O[C@@H]3O[C@@H]5CO[C@@H](C)O[C@H]5[C@H](O)[C@H]3O)[C@H]3COC(=O)[C@H]23)OCO4)cc(OC)c1O [Etoposide]	~600	~1500	1500	600									
HeFi-1: anti-CD30 mAb produced by immunizing mice with the L428 Hodgkin's disease cell line (antibody, V domains shown) VH: EVKLVESGGGLVQPGGSLRLSCATSGFTFSDYYMNWVRQPPGKALEWLGFIRNKANGYTTEFSASVMGRFTISRDDSQSILYLQMNTLRAEDSATYYCARDPPYGNPHYYAMDYWGQGTSVTVSS VL: DIVLTQSPASLAVSLGQRATISCRASKSVSASGYNYMHWYQQKAGQPPKLLIHLASNLESGVPARFSGSGSGTDFTLNIHPVEEEDASTYYCQHSGELPFTFGSGTKLEIK					growth inhibited	growth inhibited	growth inhibited	growth inhibited	growth inhibited	growth inhibited	growth inhibited	no signs of disease	release of the sCD30 (L540 cells): weakly enhanced; viability of the cell line on co-culture (L540 [4]): failed to reveal any direct effect; viability of the cell line on co-culture (L428 [5]): failed to reveal any direct effect; survival of SCID mice bearing ALCL tumor xenografts (ALCL tumor xenografts): prolonged survival
AC10: murine anti-CD30 monoclonal antibody prepared against human NK-like cell line YT; hybridoma deposit ATCC PTA-6679 (antibody, listed as Mus musculus, V domains shown) VH: QIQLQQSGPEVVKPGASVKISCKASGYTFTDYYITWVKQKPGQGLEWIGWIYPGSGNTKYNEKFKGKATLTVDTSSSTAFMQLSSLTSEDTAVYFCANYGNYWFAYWGQGTQVTVSA VL: DIVLTQSPASLAVSLGQRATISCKASQSVDFDGDSYMNWYQQKPGQPPKVLIYAASNLESGIPARFSGSGSGTDFTLNIHPVEEEDAATYYCQQSNEDPWTFGGGTKLEIK					growth inhibited	growth inhibited	growth inhibited	growth inhibited	growth inhibited	growth inhibited	growth inhibited	no signs of disease	cell growth (3H-thymidine incorporation) (HDLM-2; [13]): growth inhibition; cell growth (3H-thymidine incorporation) (HDLM-2; [14]): inhibition of cell growth; cell growth (3H-thymidine incorporation) (KM-H2; [13]): growth inhibition; cell growth (3H-thymidine incorporation) (KM-H2; [14]): inhibition of cell growth; cell growth (3H-thymidine incorporation) (KM-H2; soluble mAb 0.11 g/ml cross-linked with 20 μg/ml goat anti-mouse IgG, 5×10^3 cell/well, 72 hours (FIG. 4)): growth inhibited; cell growth (3H-thymidine incorporation) (L428 [1]; [13]): growth inhibition; cell growth (3H-thymidine incorporation) (L428 [1]; [14]): inhibition of cell growth; cell growth (3H-thymidine incorporation) (L540 [2]; [13]): growth inhibition; cell growth (3H-thymidine incorporation) (L540 [2]; [14]): inhibition of cell growth
cAC10: chimeric antibody: AC10 heavy and light chain variable regions with human gamma 1 and kappa constant regions (antibody, left off: a dimerising Fc or GST, chimeric antibody: AC10 heavy and light chain variable regions with human gamma 1 and kappa constant regions) heavy: QIQLQQSGPEVVKPGASVKISCKASGYTFTDYYITWVKQKPGQGLEWIGWIYPGSGNTKYNEKFKGKATLTVDTSSSTAFMQLSSLTSEDTAVYFCANYGNYWFAYWGQGTQVTVSA light: DIVLTQSPASLAVSLGQRATISCKASQSVDFDGDSYMNWYQQKPGQPPKVLIYAASNLESGIPARFSGSGSGTDFTLNIHPVEEEDAATYYCQQSNEDPWTFGGGTKLEIK													average tumor size [6]: remained about the same size
